Source: patent US20140178364A1

Target: interleukin 3 receptor α (IL-3Rα) chain (human) (UniProt P26951)
Assay: cell-based or functional assay

Chain of UniProt P26951 (P26951 20-378): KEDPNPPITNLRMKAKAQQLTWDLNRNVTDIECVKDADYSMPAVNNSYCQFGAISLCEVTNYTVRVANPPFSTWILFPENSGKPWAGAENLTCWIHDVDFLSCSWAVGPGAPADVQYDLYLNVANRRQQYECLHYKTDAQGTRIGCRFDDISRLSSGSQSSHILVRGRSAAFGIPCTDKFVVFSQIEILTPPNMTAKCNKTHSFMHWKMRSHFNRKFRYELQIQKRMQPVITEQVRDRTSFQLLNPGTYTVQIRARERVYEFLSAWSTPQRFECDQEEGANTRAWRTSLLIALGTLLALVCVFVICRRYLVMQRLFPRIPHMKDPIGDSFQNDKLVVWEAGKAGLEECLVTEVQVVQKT

Substance: chimeric version of 7G3 with a human IgG1 constant domain (ch7G3) (antibody)
- pDCs (% of total cells remaining in culture), 4 h, 10 µg/ml antibody on human PBMC (% of total cells): 0.1
- pDCs (% of total cells remaining in culture), 24 h, 10 µg/ml antibody on human PBMC (% of total cells): 0.02
- pDCs (% of total cells remaining in culture), 48 h, 10 µg/ml antibody on human PBMC (% of total cells): 0.005
